In general, Kd refers to a measure of binding affinity in units of concentration.

The record followed here is article PMC3505976.

The target of series [1] is T1, hIghmbp2hd (helicase core) (human (Homo sapiens), UniProt P38935 1-652).
T1 sequence: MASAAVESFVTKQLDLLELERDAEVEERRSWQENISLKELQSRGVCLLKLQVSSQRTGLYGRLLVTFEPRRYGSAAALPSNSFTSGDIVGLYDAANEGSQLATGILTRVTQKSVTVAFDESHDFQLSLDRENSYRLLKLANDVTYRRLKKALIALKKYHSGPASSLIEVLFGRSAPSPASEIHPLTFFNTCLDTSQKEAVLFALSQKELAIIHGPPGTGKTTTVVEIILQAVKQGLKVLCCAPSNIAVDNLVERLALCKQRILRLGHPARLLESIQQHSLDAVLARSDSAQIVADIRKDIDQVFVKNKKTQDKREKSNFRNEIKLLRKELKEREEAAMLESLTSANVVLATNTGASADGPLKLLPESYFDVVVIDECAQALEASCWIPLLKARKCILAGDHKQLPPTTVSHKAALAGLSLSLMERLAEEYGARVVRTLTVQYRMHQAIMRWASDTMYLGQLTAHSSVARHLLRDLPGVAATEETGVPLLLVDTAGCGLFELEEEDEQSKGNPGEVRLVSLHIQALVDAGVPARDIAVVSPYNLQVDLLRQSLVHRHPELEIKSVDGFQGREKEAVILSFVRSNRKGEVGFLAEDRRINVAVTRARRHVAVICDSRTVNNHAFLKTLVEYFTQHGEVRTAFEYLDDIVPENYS
The series is described as follows: fluorescence anisotropy. A general note: Fluorescence polarisation rises when a labelled molecule tumbles more slowly, as on binding a larger partner.

In series [2] the target is T2, mIghmbp2hd-R3H (helicase core + R3H) (mouse, UniProt P40694 1-786).
T2 sequence: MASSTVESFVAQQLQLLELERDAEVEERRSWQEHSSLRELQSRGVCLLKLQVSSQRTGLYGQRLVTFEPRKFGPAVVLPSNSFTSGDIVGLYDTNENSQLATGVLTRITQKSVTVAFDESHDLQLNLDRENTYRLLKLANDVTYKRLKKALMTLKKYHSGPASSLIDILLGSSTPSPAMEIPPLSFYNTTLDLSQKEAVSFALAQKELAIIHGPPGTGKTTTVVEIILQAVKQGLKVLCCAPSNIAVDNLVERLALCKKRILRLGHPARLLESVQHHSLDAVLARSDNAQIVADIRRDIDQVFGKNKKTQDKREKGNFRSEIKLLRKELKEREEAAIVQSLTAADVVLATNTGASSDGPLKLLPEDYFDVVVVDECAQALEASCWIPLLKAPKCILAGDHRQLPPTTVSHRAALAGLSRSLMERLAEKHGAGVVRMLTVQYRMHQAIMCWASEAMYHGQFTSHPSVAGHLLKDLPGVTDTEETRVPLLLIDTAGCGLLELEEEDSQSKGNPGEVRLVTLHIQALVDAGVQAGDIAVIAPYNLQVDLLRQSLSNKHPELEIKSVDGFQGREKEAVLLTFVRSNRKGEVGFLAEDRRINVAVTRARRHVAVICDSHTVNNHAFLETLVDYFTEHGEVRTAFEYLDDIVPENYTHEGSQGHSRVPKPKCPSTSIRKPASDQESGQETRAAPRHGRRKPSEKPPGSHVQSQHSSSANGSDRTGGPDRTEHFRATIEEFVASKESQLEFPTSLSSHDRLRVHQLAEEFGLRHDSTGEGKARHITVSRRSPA
The series is described as follows: fluorescence anisotropy.

For series [3], the target named is T1, hIghmbp2hd (helicase core). Put plainly: crystal structure.

Regarding UUUUUUUUUUUUUUU (ssRNA) [U15 ssRNA], the Kd in series [1] was found to be 1080 ± 130 nM; in series [2], 107 ± 29 nM. In the case of AAAAAAAAAA (ssRNA) [A10 ssRNA], the binding result in series [3] is reported as “binds”.
